Laboratory results as given in patent US9549967B2, “Regulation of sodium channels by PLUNC proteins” (The University of North Carolina at Chapel Hill, priority 2009, dated 2017).

T1: αβγENaC (Rattus norvegicus, UniProt P37089+P37090+P37091)
T1 construct: expressed in transfected cells; host or cells: Xenopus laevis oocytes (cRNA injection)
T1 sequence (P37089 1-698): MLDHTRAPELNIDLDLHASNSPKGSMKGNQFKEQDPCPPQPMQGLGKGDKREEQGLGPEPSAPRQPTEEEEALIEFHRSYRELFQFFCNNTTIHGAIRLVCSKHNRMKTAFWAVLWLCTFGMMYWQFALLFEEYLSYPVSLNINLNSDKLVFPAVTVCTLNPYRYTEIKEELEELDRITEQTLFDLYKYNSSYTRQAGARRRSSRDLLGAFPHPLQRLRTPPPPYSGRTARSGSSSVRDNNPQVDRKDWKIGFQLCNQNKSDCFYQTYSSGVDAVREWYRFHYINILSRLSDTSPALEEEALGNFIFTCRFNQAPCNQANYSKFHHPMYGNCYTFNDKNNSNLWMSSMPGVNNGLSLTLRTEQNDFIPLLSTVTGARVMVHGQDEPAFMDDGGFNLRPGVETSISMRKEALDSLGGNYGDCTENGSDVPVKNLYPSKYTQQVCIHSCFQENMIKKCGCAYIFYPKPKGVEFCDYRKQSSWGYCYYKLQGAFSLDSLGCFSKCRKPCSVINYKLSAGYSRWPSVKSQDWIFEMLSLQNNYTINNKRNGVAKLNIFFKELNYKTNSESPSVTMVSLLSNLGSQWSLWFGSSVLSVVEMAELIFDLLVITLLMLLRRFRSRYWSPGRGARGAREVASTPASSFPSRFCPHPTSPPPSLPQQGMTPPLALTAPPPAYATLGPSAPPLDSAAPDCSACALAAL
T1 sequence (P37090 1-638): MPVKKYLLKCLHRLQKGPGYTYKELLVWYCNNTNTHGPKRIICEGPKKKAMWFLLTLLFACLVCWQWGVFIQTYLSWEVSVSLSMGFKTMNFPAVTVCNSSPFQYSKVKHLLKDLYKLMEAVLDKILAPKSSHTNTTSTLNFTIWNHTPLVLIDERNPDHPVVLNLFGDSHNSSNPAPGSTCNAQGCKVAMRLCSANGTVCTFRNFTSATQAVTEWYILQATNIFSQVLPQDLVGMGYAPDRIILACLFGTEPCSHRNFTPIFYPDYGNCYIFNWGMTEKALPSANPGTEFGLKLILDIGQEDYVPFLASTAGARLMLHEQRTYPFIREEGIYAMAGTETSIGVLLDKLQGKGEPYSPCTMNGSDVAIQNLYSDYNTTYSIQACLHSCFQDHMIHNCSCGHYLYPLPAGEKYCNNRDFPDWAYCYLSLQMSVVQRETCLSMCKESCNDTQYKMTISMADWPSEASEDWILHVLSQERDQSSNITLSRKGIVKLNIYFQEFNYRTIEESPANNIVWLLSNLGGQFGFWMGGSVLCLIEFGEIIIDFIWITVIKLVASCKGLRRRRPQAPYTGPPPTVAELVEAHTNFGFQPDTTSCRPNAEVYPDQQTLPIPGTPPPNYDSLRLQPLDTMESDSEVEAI
T1 sequence (P37091 1-650): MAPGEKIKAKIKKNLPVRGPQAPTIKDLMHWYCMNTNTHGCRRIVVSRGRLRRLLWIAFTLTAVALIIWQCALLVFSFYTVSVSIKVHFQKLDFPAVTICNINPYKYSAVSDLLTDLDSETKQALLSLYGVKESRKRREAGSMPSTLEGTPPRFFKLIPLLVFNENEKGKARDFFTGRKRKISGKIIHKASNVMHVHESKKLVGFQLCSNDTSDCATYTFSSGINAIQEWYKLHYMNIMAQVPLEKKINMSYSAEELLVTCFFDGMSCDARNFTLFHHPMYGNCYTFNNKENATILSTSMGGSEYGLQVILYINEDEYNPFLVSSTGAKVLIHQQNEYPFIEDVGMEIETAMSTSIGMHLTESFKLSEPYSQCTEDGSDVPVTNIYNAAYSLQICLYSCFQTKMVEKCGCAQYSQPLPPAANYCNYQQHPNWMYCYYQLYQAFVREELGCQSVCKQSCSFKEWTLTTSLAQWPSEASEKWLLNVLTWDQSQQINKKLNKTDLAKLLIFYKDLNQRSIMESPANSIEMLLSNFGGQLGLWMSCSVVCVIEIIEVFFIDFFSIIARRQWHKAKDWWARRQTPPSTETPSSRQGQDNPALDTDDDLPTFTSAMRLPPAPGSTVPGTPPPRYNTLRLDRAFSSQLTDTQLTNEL


Molecular target: T1, αβγENaC
Assay: Amiloride-sensitive whole cell current in Xenopus laevis oocytes expressing ENaC (two electrode voltage clamp)
Format: cell-based
Protocol: Oocyte studies. Xenopus laevis oocytes were harvested and injected as described (Donaldson, et al., J. Biol. Chem. 277:8338 (2002)). Defolliculated healthy stage V-VI oocytes were injected with 0.3 ng of cRNA of each ENaC subunit. Injected oocytes were kept in modified Barth's saline (in mM: 88 NaCl, 1 KCl, 2.4 NaHCO3, 0.3 Ca(NO3)2, 0.41 CaCl2, 0.82 MgSO4, and 15 HEPES, adjusted to pH 7.35 with Tris). Oocytes were studied 24 hr after injection using the two electrode voltage clamp technique as previously described (Donaldson, et al., J. Biol. Chem. 277:8338 (2002)). Oocytes were clamped at a holding potential of […]. The change in amiloride-sensitive whole cell current as an indicator of ENaC activity was determined by subtracting the corresponding current value measured in the presence of 10 μM amiloride from that measured before the application of amiloride.

| Molecule | ENaC activity on trypsin exposure (oocytes) | ability of CAP1 and CAP2 to activate ENaC (ENaC ± SPLUNC1 co-expressed with prostasin (CAP1) and CAP2) | inhibition of ENaC by full-length and truncated SPLUNC1 (oocyte current inhibition assay, pH 7.4, all p<0.0001) | trypsin stimulation of ENaC activity (trypsin-exposed oocytes ± SPLUNC1) |
| --- | --- | --- | --- | --- |
| trypsin [reference compound] | increased ENaC activity |  |  |  |
| SPLUNC1: human SPLUNC1, 256 amino acid secreted PLUNC protein (SEQ ID NO:1); rSPLUNC1 = V5/6His-tagged protein purified from HEK293 media (protein, listed as Homo sapiens, V5/6His tag, rSPLUNC1 = V5/6His-tagged protein purified from HEK293 media) MFQTGGLIVFYGLLAQTMAQFGGLPVPLDQTLPLNVNPALPLSPTGLAGSLTNALSNGLLSGGLLGILENLPLLDILKPGGGTSGGLLGGLLGKVTSVIPGLNNIIDIKVTDPQLLELGLVQSPDGHRLYVTIPLGIKLQVNTPLVGASLLRLAVKLDITAEILAVRDKQERIHLVLGDCTHSPGSLQISLLDGLGPLPIQGLLDSLTGILNKVLPELVQGNVCPLVNEVLRGLDITLVHDIVNMLIHGLQFVIKV |  | significantly reduced | Significant inhibition | attenuated |
